Data as given in patent US20140199706A1.
Read-outs that look alike come from different tables or passages of the source.

Legend:
yeast proteasome (26S) [1] = tested on: yeast proteasome (26S)
[2] = target: proteasome regulatory particle (RP) purified from a ubp6Δ strain
yeast proteasome (26S) [3] = target: yeast proteasome (26S); remark: listed apart in the source
[4] = target: yeast proteasome (26S) (S. cerevisiae (yeast)); assay: cell-based or functional assay

Ubp6-ublΔ
cyclin B degradation assay (yeast proteasome (26S) [1]): Deletion of the Ubl domain rendered Ubp6 non-inhibitory in the cyclin B degradation assay (FIG. 4B)

B1: Ubp6 (protein)
chain: MSGETFEFNIRHSGKVYPITLSTDATSADLKSKAEELTQVPSARQKYMVKGGLSGEESIKIYPLIKPGSTVMLLGTPDANLISKPAKKNNFIEDLAPEQQVQQFAQLPVGFKNMGNTCYLNATLQALYRVNDLRDMILNYNPSQGVSNSGAQDEEIHKQIVIEMKRCFENLQNKSFKSVLPIVLLNTLRKCYPQFAERDSQGGFYKQQDAEELFTQLFHSMSIVFGDKFSEDFRIQFKTTIKDTANDNDITVKENESDSKLQCHISGTTNFMRNGLLEGLNEKIEKRSDLTGANSIYSVEKKISRLPKFLTVQYVRFFWKRSTNKKSKILRKVVFPFQLDVADMLTPEYAAEKVKVRDELRKVEKEKNEKEREIKRRKFDPSSSENVMTPREQYETQVALNESEKDQWLEEYKKHFPPNLEKGENPSCVYNLIGVITHQGANSESGHYQAFIRDELDENKWYKFNDDKVSVVEKEKIESLAGGGESDSALILMYKGFGL
ubiquitin chain shortening of ub-cyclin B conjugates [2]: addition of purified Ubp6 to RP resulted in chain shortening, although to a lesser extent than with 26S proteasomes (FIG. 6A)
cyclin B degradation by ubp6Δ proteasomes after add-back of recombinant Ubp6 (yeast proteasome (26S) [3]): a marked inhibition of cyclin B degradation (FIG. 1F) was observed
deubiquitination of cyclin B (yeast proteasome (26S) [3]): when Ubp6 is incubated in the presence of cyclin B, but without proteasomes, no deubiquitination of cyclin B is observed (FIG. 4D)
inhibition of degradation of ub-cyclin B (quantitative mass spectrometry, 20-minute incubation) [4]: 70%

B2: Ubp6-C118A (protein)
chain: MSGETFEFNIRHSGKVYPITLSTDATSADLKSKAEELTQVPSARQKYMVKGGLSGEESIKIYPLIKPGSTVMLLGTPDANLISKPAKKNNFIEDLAPEQQVQQFAQLPVGFKNMGNTAYLNATLQALYRVNDLRDMILNYNPSQGVSNSGAQDEEIHKQIVIEMKRCFENLQNKSFKSVLPIVLLNTLRKCYPQFAERDSQGGFYKQQDAEELFTQLFHSMSIVFGDKFSEDFRIQFKTTIKDTANDNDITVKENESDSKLQCHISGTTNFMRNGLLEGLNEKIEKRSDLTGANSIYSVEKKISRLPKFLTVQYVRFFWKRSTNKKSKILRKVVFPFQLDVADMLTPEYAAEKVKVRDELRKVEKEKNEKEREIKRRKFDPSSSENVMTPREQYETQVALNESEKDQWLEEYKKHFPPNLEKGENPSCVYNLIGVITHQGANSESGHYQAFIRDELDENKWYKFNDDKVSVVEKEKIESLAGGGESDSALILMYKGFGL
cyclin B degradation assay (yeast proteasome (26S) [3]): a catalytically inactive point mutant of Ubp6 (Ubp6-C118A) proved competent for inhibition (FIG. 4B)
inhibition of degradation of ub-cyclin B (quantitative mass spectrometry, 20-minute incubation) [4]: 70%
